Test results reported in PMC6191436.

Molecular target: FLAG-cyclin B1 (UniProt P14635)
Assay: co-IP; MCF7 cells transfected with Myc-BRCA1-Δ11 and FLAG-cyclin B1, synchronised (aphidicolin 0.3 μM 24 h, release 8 h, nocodazole 100 ng/mL 24 h, release 2 h), without or with irradiation (10 Gy); anti-FLAG antibody-conjugated agarose; Western blot with anti-Myc

Sequence of FLAG-cyclin B1 (P14635 whole entry): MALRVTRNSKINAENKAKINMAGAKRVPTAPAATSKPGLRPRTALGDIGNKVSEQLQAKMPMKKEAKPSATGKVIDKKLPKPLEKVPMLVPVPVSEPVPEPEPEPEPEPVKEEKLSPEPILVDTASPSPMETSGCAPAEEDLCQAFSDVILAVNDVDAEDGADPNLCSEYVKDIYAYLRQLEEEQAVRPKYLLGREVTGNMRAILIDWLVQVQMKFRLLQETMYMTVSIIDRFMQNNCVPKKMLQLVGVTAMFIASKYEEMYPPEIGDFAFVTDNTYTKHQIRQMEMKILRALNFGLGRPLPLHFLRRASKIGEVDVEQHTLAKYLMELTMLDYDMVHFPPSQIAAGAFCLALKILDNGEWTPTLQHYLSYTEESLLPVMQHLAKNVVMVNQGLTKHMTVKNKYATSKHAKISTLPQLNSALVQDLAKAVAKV
Sequence of Myc-BRCA1-Δ11 (P38398 whole entry, stated change not applied): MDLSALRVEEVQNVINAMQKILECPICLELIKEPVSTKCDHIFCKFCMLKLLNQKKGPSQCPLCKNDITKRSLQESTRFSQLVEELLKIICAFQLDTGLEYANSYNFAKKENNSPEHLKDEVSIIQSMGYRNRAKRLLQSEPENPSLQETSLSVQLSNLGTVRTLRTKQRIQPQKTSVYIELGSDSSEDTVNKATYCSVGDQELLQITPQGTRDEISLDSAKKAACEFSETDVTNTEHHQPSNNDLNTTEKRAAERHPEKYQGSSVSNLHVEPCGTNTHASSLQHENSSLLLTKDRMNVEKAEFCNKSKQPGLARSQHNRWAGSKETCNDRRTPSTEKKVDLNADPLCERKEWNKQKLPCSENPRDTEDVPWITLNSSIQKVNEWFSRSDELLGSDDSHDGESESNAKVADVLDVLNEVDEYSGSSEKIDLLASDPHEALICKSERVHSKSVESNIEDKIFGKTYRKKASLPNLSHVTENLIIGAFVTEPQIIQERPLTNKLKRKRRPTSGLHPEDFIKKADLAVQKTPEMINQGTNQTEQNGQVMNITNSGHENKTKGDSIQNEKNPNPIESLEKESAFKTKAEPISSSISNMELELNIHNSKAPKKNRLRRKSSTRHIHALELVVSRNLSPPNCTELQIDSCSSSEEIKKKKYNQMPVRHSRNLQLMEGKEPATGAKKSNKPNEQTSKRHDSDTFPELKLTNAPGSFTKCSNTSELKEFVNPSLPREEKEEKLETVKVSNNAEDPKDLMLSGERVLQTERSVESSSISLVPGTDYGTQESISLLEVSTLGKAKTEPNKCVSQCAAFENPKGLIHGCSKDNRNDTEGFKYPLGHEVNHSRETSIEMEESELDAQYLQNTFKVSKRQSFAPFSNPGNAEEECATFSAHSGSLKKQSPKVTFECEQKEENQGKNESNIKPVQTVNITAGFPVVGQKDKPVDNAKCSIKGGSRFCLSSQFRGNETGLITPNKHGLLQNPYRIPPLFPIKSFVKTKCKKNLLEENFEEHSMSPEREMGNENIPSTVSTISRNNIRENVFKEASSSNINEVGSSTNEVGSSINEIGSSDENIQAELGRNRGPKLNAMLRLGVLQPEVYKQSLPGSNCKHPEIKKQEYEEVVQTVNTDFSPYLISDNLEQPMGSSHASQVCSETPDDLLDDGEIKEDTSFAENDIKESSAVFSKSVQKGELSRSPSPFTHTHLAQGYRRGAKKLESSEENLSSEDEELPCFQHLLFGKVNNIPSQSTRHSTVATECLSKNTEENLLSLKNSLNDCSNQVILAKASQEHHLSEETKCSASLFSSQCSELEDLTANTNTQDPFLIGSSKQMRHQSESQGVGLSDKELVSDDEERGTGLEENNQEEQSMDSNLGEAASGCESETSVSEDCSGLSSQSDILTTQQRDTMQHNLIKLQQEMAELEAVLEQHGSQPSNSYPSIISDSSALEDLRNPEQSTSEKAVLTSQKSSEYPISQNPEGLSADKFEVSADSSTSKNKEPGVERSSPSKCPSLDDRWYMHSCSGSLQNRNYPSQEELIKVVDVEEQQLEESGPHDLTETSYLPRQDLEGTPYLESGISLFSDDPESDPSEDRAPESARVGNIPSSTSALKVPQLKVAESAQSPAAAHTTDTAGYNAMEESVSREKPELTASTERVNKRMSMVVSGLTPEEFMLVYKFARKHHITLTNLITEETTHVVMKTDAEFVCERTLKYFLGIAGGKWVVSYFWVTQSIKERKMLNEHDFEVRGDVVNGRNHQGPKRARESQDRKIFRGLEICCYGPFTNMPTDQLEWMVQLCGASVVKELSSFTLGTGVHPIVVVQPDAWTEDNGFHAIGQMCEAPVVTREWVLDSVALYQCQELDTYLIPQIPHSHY

- interaction upon irradiation relative to no irradiation (nocodazole-treated cells): 214%
Substance: Myc-BRCA1-Δ11 (from UniProt P38398-5 1-721) (natural protein)
